Where “and” joins values, the source holds several entries; their conditions need not be identical. Equal entries are not always repeated. Where two headings read alike, the source gives them in different places.
Legend:
[1] = target: T1, Fc tagged human CD137 (human, UniProt Q07011 24-186); assay: SPR
T1 construct: also called CD137-Fc chimeric protein
Method in brief: (§1)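 Kinetics were fitted with a one-to-one Langmuir model to give apparent ka, kd and KD. Binders at 0.12-90 nM (three-fold series) flowed 3 min, with 10 min dissociation and 3 M MgCl₂ regeneration, on a Biacore T200.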

[2] = target: T2, mouse CD137-Fc chimeric protein (mouse, UniProt P20334 24-187, limits assumed); assay: SPR
T2 sequence (looked up): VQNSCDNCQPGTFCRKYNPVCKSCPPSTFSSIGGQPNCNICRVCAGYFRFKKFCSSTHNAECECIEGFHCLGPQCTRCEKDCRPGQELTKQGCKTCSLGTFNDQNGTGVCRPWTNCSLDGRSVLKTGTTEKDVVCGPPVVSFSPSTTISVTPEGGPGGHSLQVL
Method in brief: as §1

[3] = target: cynomolgus CD137-Fc chimeric protein (cynomolgus monkey, UniProt A9YYE7 24-186); assay: SPR
Method in brief: as §1

[4] = target: T3, Fc tagged human PDL1 (human, UniProt Q9NZQ7 19-239); assay: SPR
T3 construct: Bought (Sino Biological, cat. 10084-H02H); captured on the SPR chip; also called PDL1-Fc chimeric protein
Method in brief: as §1

[5] = target: T4, CD137 on Jurkat NFkB reporter cells (human, UniProt Q07011 24-255); assay: cell-based or functional assay
[6] = target: T5, biotinylated human PDL1 (human, UniProt Q9NZQ7 19-238, limits assumed, biotinylated); assay: competition ELISA B7.1/PDL1
T5 construct: also called biotinylated PDL1
Method in brief: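 IC₅₀ was derived by four-parameter logistic fitting of reference-subtracted A450/690 readings. The signal came from streptavidin-polyHRP40 (10 ng/ml) with a 6-minute TMB reaction detecting biotinylated PDL1 bound to the plate. Pre-mixed samples sat 1 h at RT before a 1.5 h plate incubation.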

[7] = target: T4, CD137 on Jurkat NFkB reporter cells; assay: cell-based or functional assay; remark: listed apart in the source
[8] = target: T4, CD137 on Jurkat NFkB reporter cells; assay: cell-based or functional assay; remark: listed apart in the source
[9] = target: T4, CD137 on Jurkat NFkB reporter cells; assay: cell-based or functional assay; remark: listed apart in the source
[10] = target: T4, CD137 on Jurkat NFkB reporter cells; assay: cell-based or functional assay; remark: listed apart in the source
[11] = target: T4, CD137 on Jurkat NFkB reporter cells; assay: cell-based or functional assay; remark: listed apart in the source
[12] = target: T4, CD137 on Jurkat NFkB reporter cells; assay: cell-based or functional assay; remark: listed apart in the source
[13] = target: T5, biotinylated human PDL1; assay: competition ELISA PD-1/PDL1
[14] = target: human PDL1 on cells (human, UniProt Q9NZQ7 19-290); assay: cell-based or functional assay
[15] = target: T4, CD137 on Jurkat NFkB reporter cells; assay: cell-based or functional assay; remark: listed apart in the source

B1: PRO885 (bispecific antibody)
chain: DIQMTQSPSSLSASVGDRVTITCQASQSINDYLAWYQQKPGKAPKLLIYKASTLASGVPSRFSGSGSGTDFTLTISSLQPEDFATYYCQQGYIITDIDNVFGTGTKVTVLGGGGGSQVQLQESGPGLVKPSETLSLTCKVSGFSFSNSYWICWIRQPPGKGLEWIGCTFVGSSDSTYYANWAKGRVTISVDSSKNQFSLKLSSVTAADTAVYYCARHPSDAVYGYANNLWGQGTLVTVSSGGGGSGGGGSGGGGSGGGGSIQMTQSPSSLSASVGDRVTITCQASQSINNVLAWYQQKPGKAPKLLIYRASTLASGVPSRFSGSGSGTDFTLTISSLQPEDFATYYCQSSYGNYGDFGTGTKVTVLGGGGGSQVQLQESGPGLVKPSETLSLTCKVSGFSFSSGYDMCWIRQPPGKGLEWIGCVVAGSVDITYYASWAKGRVTISVDSSKNQFSLKLSSVTAADTAVYYCARKDAYSDAFNLWGQGTLVTVSS
notes: scDb anti-PDL1 x CD137; also called 38-02-A04 sc01 scDb-i/33-03-G02 sc01 scDb-o
koff [1]: 0.00076 s⁻¹ | kon [1]: 240000 M⁻¹ s⁻¹ | Kd [2]: 600 nM | koff [2]: 0.18 s⁻¹ | kon [2]: 290000 M⁻¹ s⁻¹ | Kd [3]: 2.1 nM | koff [3]: 0.0007 s⁻¹ | kon [3]: 340000 M⁻¹ s⁻¹ | koff [4]: 0.00014 s⁻¹ | kon [4]: 2.1e+06 M⁻¹ s⁻¹ | EC50, NFkB reporter, CHO-PDL1, 6 h [5]: 7.84 ng/mL | EC50, NFkB reporter, CHO-PDL1, 6 h, +HSA [5]: 7.92 ng/mL | IC50 [6]: 12.2 ng/mL | rel. IC50 (IC50 avelumab/IC50 test) [6]: 0.59 fold | IC50 (ng/ml), NFkB reporter, CHO-PD-L1 [7]: 11.7 ng/mL | IC50 (ng/ml), NFkB reporter, HCC827 + IFNg [7]: 8.88 ng/mL | IC50 (ng/ml), NFkB reporter, HCC827 - IFNg [7]: 13.1 ng/mL | max. activation (%), NFkB reporter, CHO-PD-L1 [7]: 499% | max. activation (%), NFkB reporter, HCC827 + IFNg [7]: 134% | max. activation (%), NFkB reporter, HCC827 - IFNg [7]: 111% | rel. IC50 (urelumab/test), NFkB reporter, CHO-PD-L1 [7]: 6.75 fold | rel. IC50 (urelumab/test), NFkB reporter, HCC827 + IFNg [7]: 16.3 fold | rel. IC50 (urelumab/test), NFkB reporter, HCC827 - IFNg [7]: 8.42 fold | EC50, NFkB reporter, HCC827 without IFNg [8]: 11.5 ng/mL and 13.1 ng/mL and 13 ng/mL | EC50, NFkB reporter, CHO-PDL1, 24 h [9]: 13.8 ng/mL | EC50, NFkB reporter, CHO-PDL1, 24 h, +HSA [9]: 14.8 ng/mL | EC50, NFkB reporter, CHO-PDL1 [10]: 5.13 ng/mL and 4.86 ng/mL and 6.3 ng/mL | EC50, NFkB reporter, CHO-PDL1 [11]: 11.7 ng/mL | EC50, NFkB reporter, HCC827 with IFNg [12]: 9.27 ng/mL and 8.88 ng/mL and 9.23 ng/mL | IC50 [13]: 8.35 ng/mL | rel. IC50 (IC50 avelumab/IC50 test) [13]: 0.17 fold | IC50 (ng/ml), NF-AT potency assay [14]: 137 ng/mL | rel. IC50 (avelumab/test) [14]: 0.28 fold | EC50, NFkB reporter, HCC827 with IFNg, 24 h [15]: 7.51 ng/mL | EC50, NFkB reporter, HCC827 without IFNg, 24 h [15]: 9.52 ng/mL

From patent US20230192897A1 (NUMAB THERAPEUTICS, published 2023)
